Each block holds one binder with its values, some of them ahead of it. Primed or numbered codes have the meaning given here. Ends that are not written are not given here. 5FAM′ = 5-carboxyfluorescein
Assays:
[1] = biological target: T1, His6-Pex5c, C-terminal fragment (residues 295-612) of S. cerevisiae PEX5 (S. cerevisiae, UniProt P35056 295-612); experiment: fluorescence polarisation; competition: 375 nM Pex5c and 20 nM 5FAM-…, unlabelled … (4 mM to 3.8 nM) or … (0.5 mM to 0.47 nM) added; 50 mM HEPES pH 7.4, 100 mM NaCl, 0.05% Tween-20; equilibrated 16 h at 4 °C; fit with equation 17 of Roehrl et al.; conditions: both partners purified
T1 construct: Pex5p (PEX5), PTS1 import receptor, S. cerevisiae, C-terminal fragment residues 295-612; Plasmid was a gift of Brooke M. Gardner; also called Pex5p C-terminal fragment; C-terminal truncation of Pex5p; not shown: His6, N-terminal, kept
T1 sequence (looked up): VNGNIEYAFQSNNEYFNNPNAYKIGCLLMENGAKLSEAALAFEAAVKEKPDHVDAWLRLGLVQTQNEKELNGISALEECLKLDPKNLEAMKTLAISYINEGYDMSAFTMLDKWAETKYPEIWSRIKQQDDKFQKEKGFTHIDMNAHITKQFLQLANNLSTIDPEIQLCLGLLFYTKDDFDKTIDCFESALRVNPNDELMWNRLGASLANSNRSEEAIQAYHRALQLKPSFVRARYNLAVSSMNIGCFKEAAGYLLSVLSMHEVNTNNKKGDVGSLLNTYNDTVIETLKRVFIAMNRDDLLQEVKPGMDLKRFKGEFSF

[2] = biological target: T1, His6-Pex5c, C-terminal fragment …; experiment: fluorescence polarisation; direct titration: His6-Pex5C from 6.5 uM downward in twofold increments against 20 nM 5FAM-…; 50 mM HEPES pH 7.4, 100 mM NaCl, 0.05% Tween-20; equilibrated 16 h at 4 °C; anisotropy converted to fraction bound; conditions: both partners purified

Kd [1]: 176000 ± 17300 nM
B1: PTS1 peptide (DELYKGSKL) (peptide)
peptide: DELYKGSKL
notes: peptide that results from fusion of the canonical PTS1 (SKL) to the C-terminus of YFP; source: synthetic peptide, bought: Elim Biopharmaceuticals Inc

Kd [1]: 800 ± 100 nM
B2: ePTS1 peptide (LGRGRRSKL) (peptide)
peptide: LGRGRRSKL
notes: ePTS1: linker LGRGRR selected from a randomized six-residue linker library, followed by the canonical PTS1 SKL; also called enhanced PTS1; source: synthetic peptide, bought: Elim Biopharmaceuticals Inc

Kd [2]: 355 ± 6.38 nM
B3: 5-Carboxyfluorescein-LGRGRRSKL (peptide)
peptide: {5FAM′}-LGRGRRSKL
notes: ePTS1: linker LGRGRR selected from a randomized six-residue linker library, followed by the canonical PTS1 SKL; also called fluorescein-tagged ePTS1 peptide; source: synthetic peptide, bought: Elim Biopharmaceuticals Inc
